Test results: patent publication US20230331823A1

Key:
[1] = target: SARS-CoV-2 stabilized Spike trimer (S-2P) (SARS-CoV-2) (UniProt P0DTC2)
[2] = target: SARS-CoV-2 RBD (pCoV08, RBD-His6) (SARS-CoV-2 (Wuhan-Hu-1)) (UniProt P0DTC2); assay: BLI, RBD on probe, antibody, then hACE2 (blocked ligand)

CR3022 (antibody)
EC50 (read off the curve) [1]: 30 µg/mL | EC50 (read off the curve) [2]: 10 µg/mL
